± gives the standard deviation of the averaged measurements.
B1: library; a variant is named by its letters at N, in order (parent)
chain: GCUGUCACCGGUGCUUGGUACGUUAUAUUCAGCCGGUCUGAUGAGUCUNNNNNNAGACGAAACAGC

Columns and labels:
(6R,S)-folinic acid [1] = variants of: B1; test: FACS-Seq fitted mean relative fluorescence mCherry/BFP without ligand (log10 relative fluorescence); HEK293T overexpressing SLC46A1; higher = higher reporter protein expression; conditions: without (6R,S)-folinic acid; ligand present: no
How it was run: (§1)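 Fluorescence comes from a normal fit to bin counts, normalized against controls. HEK293T libraries lentivirally given a ribozyme-switch mCherry reporter and an EF1α-BFP marker were enriched, incubated 48 h with or without ligand, and sorted by mCherry/BFP into 6 bins. Bin genomic DNA was PCR-amplified, barcoded and sequenced on MiSeq. The log10(mCherry/BFP) mean was scaled to five spiked-in control ribozymes.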

(6R,S)-folinic acid [2] = variants of: B1; test: normalized RNA/DNA level without ligand (relative to sTRSVctl = 100) (log10 (% of sTRSVctl)); HEK293T overexpressing SLC46A1; higher = less ribozyme self-cleavage, higher mRNA level; conditions: without (6R,S)-folinic acid; ligand present: no
How it was run: (§2)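 RNA level was computed as RNA reads over DNA reads divided by a spiked-in non-cleaving sequence or by the top sequences, then scaled and log-transformed. Scaling was ×100 with log10, the top group was 25 sequences, and the threshold was ≥100 DNA reads. The reads came from HEK293T cells transfected at 4 µg per 6-well well with ribozyme switch library plasmids (mCherry, or eGFP in some ligand experiments). Total RNA was extracted with EDTA 72 h after transfection, with any ligand added 1 h before it.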

(6R,S)-folinic acid [3] = variants of: B1; test: FACS-Seq fitted mean relative fluorescence mCherry/BFP with ligand (log10 relative fluorescence); HEK293T overexpressing SLC46A1; ligand concentration (+) FACS-Seq: 6 mM; higher = higher reporter protein expression; conditions: with (6R,S)-folinic acid; ligand present: yes
How it was run: as §1

(6R,S)-folinic acid [4] = variants of: B1; test: normalized RNA/DNA level with ligand (relative to sTRSVctl = 100) (log10 (% of sTRSVctl)); HEK293T overexpressing SLC46A1; ligand concentration (+) RNA-Seq: 6 mM; higher = less ribozyme self-cleavage, higher mRNA level; conditions: with (6R,S)-folinic acid; ligand present: yes
How it was run: as §2

Variant	FACS-Seq fitted mean (log10) ((6R,S)-folinic acid [1])	normalized RNA/DNA level without ligand (log10) ((6R,S)-folinic acid [2])	FACS-Seq fitted mean (log10) ((6R,S)-folinic acid [3])	normalized RNA/DNA level with ligand (log10) ((6R,S)-folinic acid [4])
UUGAAG	0.386 ± 0.00085	1.75 ± 0.026	0.374 ± 0.21	1.981 ± 0.0095
UUGAAA	0.358 ± 0.051	1.936 ± 0.014	0.286 ± 0.27	2.02 ± 0.028
UUGUAU	-0.387 ± 0.048	1.99 ± 0.02	-0.176 ± 0.12	2.014 ± 0.0072
UUGUAG	0.271 ± 0.0067	1.866 ± 0.0056	0.397 ± 0.18	1.992 ± 0.0089
AUGCGG	0.0258 ± 0.11	1.939 ± 0.013	0.185 ± 0.22	2.02 ± 0.043
AUGCGU	0.523 ± 0.16	1.951 ± 0.016	0.63 ± 0.3	1.99 ± 0.031
AUGCGA	0.422 ± 0.019	1.979 ± 0.00081	0.569 ± 0.15	2.01 ± 0.035
UUGCAG	0.439 ± 0.019	1.886 ± 0.0031	0.636 ± 0.033	2 ± 0.042
CUGGCU	0.556 ± 0.0076	2.033 ± 0.016	0.55 ± 0.13	2.02 ± 0.036
GUGCGA	0.238 ± 0.11	1.999 ± 0.014	0.278 ± 0.38	2.02 ± 0.044
GUGCGU	0.436 ± 0.15	1.9915 ± 0.0017	0.582 ± 0.16	2.008 ± 0.017
UUCCUG	0.284 ± 0.092	1.96 ± 0.027	0.493 ± 0.079	2.03 ± 0.024
GUGGCA	0.0901 ± 0.037	2.011 ± 0.0084	0.458 ± 0.2	2.02 ± 0.042
GUGGCC	0.354 ± 0.0094	2.02 ± 0.029	0.72 ± 0.12	2.05 ± 0.023
GUGACC	0.7143 ± 0.0036	2.03 ± 0.0039	0.585 ± 0.22	2.02 ± 0.028
GUGACA	0.277 ± 0.2	1.989 ± 0.003	0.446 ± 0.1	1.99 ± 0.05
AUGUGG	0.0386 ± 0.035	1.844 ± 0.0091	0.311 ± 0.041	2.01 ± 0.046
UUCCAA	0.112 ± 0.15	1.992 ± 0.0026	0.213 ± 0.13	2 ± 0.028
AUCGCU	0.152 ± 0.036	2.026 ± 0.01	0.222 ± 0.45	2.013 ± 0.015
UUCGAG	0.119 ± 0.084	1.77 ± 0.033	0.699 ± 0.054	1.97 ± 0.055
AUGACU	0.261 ± 0.032	2.01 ± 0.025	0.313 ± 0.27	2.02 ± 0.03
AUGACG	0.318 ± 0.062	1.941 ± 0.0037	0.394 ± 0.14	2.02 ± 0.022
AUGACA	0.187 ± 0.069	1.987 ± 0.0094	0.323 ± 0.037	2 ± 0.032
GUUCAA	0.497 ± 0.083	1.98 ± 0.023	0.591 ± 0.17	1.98 ± 0.023

Variant	FACS-Seq fitted mean (log10) ((6R,S)-folinic acid [1])	normalized RNA/DNA level without ligand (log10) ((6R,S)-folinic acid [2])	FACS-Seq fitted mean (log10) ((6R,S)-folinic acid [3])	normalized RNA/DNA level with ligand (log10) ((6R,S)-folinic acid [4])
GUUCAC	0.0291 ± 0.011	2.041 ± 0.016	-0.0744 ± 0.017	2.032 ± 0.014
UUCUAG	0.502 ± 0.03	1.879 ± 0.0029	0.872 ± 0.074	1.99 ± 0.044
UUCUAA	0.64 ± 0.015	2.014 ± 0.011	0.66 ± 0.067	2.01 ± 0.026
UUCAGG	0.449 ± 0.081	1.894 ± 0.0032	0.666 ± 0.2	1.98 ± 0.057
CUCGAG	0.167 ± 0.042	1.96 ± 0.02	0.115 ± 0.2	1.977 ± 0.012
GUGCCG	0.617 ± 0.24	2.0438 ± 0.0018	0.702 ± 0.27	2.04 ± 0.052
GUCUUG	0.0388 ± 0.018	1.974 ± 0.0081	0.151 ± 0.32	2.05 ± 0.049
CUGCCC	0.494 ± 0.029	2.07 ± 0.041	0.403 ± 0.0067	2.06 ± 0.021
UUGAUG	0.136 ± 0.018	1.797 ± 0.0018	0.436 ± 0.22	1.99 ± 0.046
UUUCCG	0.446 ± 0.012	1.918 ± 0.012	0.493 ± 0.15	1.99 ± 0.05
CUCCGG	0.136 ± 0.061	2.044 ± 0.0029	-0.307 ± 0.12	2.05 ± 0.028
CUCCGC	0.443 ± 0.04	2.042 ± 0.0057	0.294 ± 0.047	1.985 ± 0.019
UUCGGC	0.0747 ± 0.019	2.043 ± 0.013	-0.314 ± 0.0053	2.04 ± 0.054
GUGGAC	0.143 ± 0.12	1.868 ± 0.016	-0.011 ± 0.21	1.975 ± 0.0039
GUUAUA	-0.102 ± 0.13	1.99 ± 0.031	-0.0941 ± 0.099	2.012 ± 0.019
GUUAUG	0.244 ± 0.011	1.929 ± 0.0065	0.431 ± 0.16	1.99 ± 0.0045
AUCUCG	0.399 ± 0.02	1.976 ± 0.012	0.435 ± 0.35	2.04 ± 0.035
GUGUGU	0.164 ± 0.1	1.942 ± 0.0063	0.271 ± 0.083	2.02 ± 0.036
GUGUGA	0.383 ± 0.041	1.9667 ± 0.00054	0.136 ± 0.21	2.038 ± 0.013
GUGUGC	-0.0812 ± 0.0037	1.758 ± 0.017	0.131 ± 0.14	1.979 ± 0.0082
UUCCGA	-0.0446 ± 0.086	1.997 ± 0.002	-0.101 ± 0.13	1.999 ± 0.018
AUGUAG	0.508 ± 0.058	1.864 ± 0.016	0.615 ± 0.17	1.99 ± 0.035
UUUAUG	0.307 ± 0.0054	1.79 ± 0.024	0.315 ± 0.17	1.96 ± 0.041
CUCUUA	0.211 ± 0.012	2.0064 ± 0.0006	0.143 ± 0.3	2 ± 0.03

Variant	FACS-Seq fitted mean (log10) ((6R,S)-folinic acid [1])	normalized RNA/DNA level without ligand (log10) ((6R,S)-folinic acid [2])	FACS-Seq fitted mean (log10) ((6R,S)-folinic acid [3])	normalized RNA/DNA level with ligand (log10) ((6R,S)-folinic acid [4])
GUGUCA	0.425 ± 0.12	2.008 ± 0.0044	0.477 ± 0.009	2.03 ± 0.033
CUCGCU	0.424 ± 0.087	2.06 ± 0.044	0.349 ± 0.091	2.02 ± 0.038
CUCGCA	0.235 ± 0.086	2.06 ± 0.013	0.416 ± 0.3	2.062 ± 0.011
UUUAAG	0.386 ± 0.13	1.769 ± 0.0025	0.698 ± 0.2	1.96 ± 0.046
GUUACC	0.497 ± 0.022	2.047 ± 0.013	0.281 ± 0.23	2.03 ± 0.026
GUGGGC	0.414 ± 0.04	1.788 ± 0.0052	0.738 ± 0.17	1.98 ± 0.024
GUGGGA	-0.679 ± 0.016	2.018 ± 0.0036	-0.94 ± 0.38	2.03 ± 0.025
AUGGUU	0.245 ± 0.097	1.98 ± 0.026	0.136 ± 0.14	2.01 ± 0.027
AUGGUA	0.132 ± 0.069	1.91 ± 0.0083	0.165 ± 0.17	1.98 ± 0.038
AUGGUG	0.433 ± 0.026	1.786 ± 0.011	0.485 ± 0.12	2.01 ± 0.024
UUUCAG	0.263 ± 0.0041	1.916 ± 0.013	-0.0672 ± 0.0029	2.011 ± 0.02
AUGGCG	0.284 ± 0.024	1.91 ± 0.022	0.359 ± 0.058	2.04 ± 0.031
GUCCCC	-0.921 ± 0.05	2.022 ± 0.014	-1.94 ± 0.26	1.995 ± 0.0047
AUGGGG	0.139 ± 0.026	1.841 ± 0.0025	0.258 ± 0.36	2.03 ± 0.062
AUGGGA	0.263 ± 0.012	1.925 ± 0.015	0.269 ± 0.049	2.01 ± 0.03
GUCGCC	0.306 ± 0.12	2.015 ± 0.012	0.25 ± 0.17	2.02 ± 0.052
GUCGCA	0.512 ± 0.053	2.03 ± 0.021	0.745 ± 0.29	2.01 ± 0.041
AUCUGG	0.349 ± 0.012	1.92 ± 0.023	0.27 ± 0.019	2.02 ± 0.042
UUGGUG	0.364 ± 0.16	1.75 ± 0.031	0.52 ± 0.26	2.01 ± 0.053
GUGCUG	-0.457 ± 0.06	2.077 ± 0.012	-0.879 ± 0.14	2.05 ± 0.065
CUUAUU	0.473 ± 0.12	1.985 ± 0.0074	0.678 ± 0.072	2.01 ± 0.024
GUGAGG	0.394 ± 0.093	1.872 ± 0.0053	0.497 ± 0.2	2.015 ± 0.0075
GUGAGA	0.474 ± 0.23	1.973 ± 0.013	0.54 ± 0.081	2.02 ± 0.022
